Assay results as given in US20230312684A1 (PINETREE THERAPEUTICS, published 2023).

Assays:
[1] = molecular target: RSV-F (amino acids 1-529), (Extracellular Domain) protein (His tag), ABIN2006856 (respiratory syncytial virus) (UniProt P03420); experiment: ELISA, RSV F coated, read on Varioskan plate reader
[2] = molecular target: RSV-F (amino acids 1-529), (Extracellular Domain) protein (His tag), ABIN2006856 (respiratory syncytial virus) (UniProt P03420); experiment: ELISA, RSV F coated, read on SpectroMax
[3] = molecular target: Influenza A H5N1 virus (IAV H5N1) (target of the Octet assay of Example 18; protein not specified) (Influenza A H5N1 virus); experiment: BLI (Octet Red 96), binding affinity to IAV H5N1
[4] = molecular target: RSV-F (amino acids 1-529), (Extracellular Domain) protein (His tag), ABIN2006856 (respiratory syncytial virus) (UniProt P03420); experiment: ELISA, RSV F coated, anti-human IgG-HRP
[5] = molecular target: SARS-CoV-2 (antigen of the ELISA of Example 17; protein not specified) (SARS-CoV-2); experiment: ELISA by the method of Example 15, SARS-CoV-2 antigen
[6] = molecular target: Recombinant RSV F protein (Octet assays of Examples 14 and 16) (respiratory syncytial virus, UniProt P03420 26-529)

“SEQ ID NO: 113, b1-Fc (NRP1, WT, single b1) (Fc fusion)” was tested, and the EC50 [1] was 372 nM, the EC50 [2] was 323 nM and the Kd [3] was 18.9 nM.

With “SEQ ID NO: 121, b1b1-b1b1-Fc (NRP1, WT, quadruple b1) (Fc fusion)” the EC50 [1] was 5.65 nM, the EC50 [2] was 5.9 nM and the Kd [3] was 0.00782 nM.

With “SEQ ID NO: 122, b1b2-Fc (NRP1, WT, single b1b2) (Fc fusion)” the EC50 [4] was 23.3 nM, the EC50 [5] was 3.09 nM and the Kd [3] was 17.5 nM.

“SEQ ID NO: 138, b1b2-b1b2-Fc (NRP1, WT, double b1b2) (Fc fusion)” was tested, and the EC50 [5] was 110 nM.

In the case of “SEQ ID NO: 154, b1b2-Fc (NRP2, WT, single b1b2) (Fc fusion)”, the EC50 [4] is reported as 185 nM.

“SEQ ID NO: 191, b1b2-Fc (NRP1, WT) (Fc fusion)” was tested, and the EC50 [1] was 91 nM and the EC50 [2] was 95.7 nM.

For “SEQ ID NO: 192, b1b2-Fc-ACE2-1 (NRP1 b1b2 at the N-terminus, alpha domain of ACE2 at the C-terminus) (Fc fusion)”, the EC50 [4] was 53.9 nM.

For “SEQ ID NO: 203, b1b2-Fc-ACE2 (NRP1, WT, ACE2 alpha domain) (Fc fusion)”, the EC50 [4] was 69.7 nM.

Work on “SEQ ID NO: 205, b1b2-Fc-ACE2 (NRP1, WT, repeated ACE2 alpha domain) (Fc fusion)” yielded an EC50 [4] of 39.2 nM.

Molecule “SEQ ID NO: 206, Nrp1(b1)/Nrp2(b2)-Fc (WT) (Fc fusion)” has an EC50 [4] of 22.7 nM.

“SEQ ID NO: 207, Nrp2(b1)/Nrp1(b2)-Fc (WT) (Fc fusion)” gave an EC50 [4] of 17.1 nM.

B1: SEQ ID NO: 121, b1b1-b1b1-Fc (NRP1, WT, quadruple b1) (Fc fusion)
chain: EDFKCMEALGMESGEIHSDQITASSQYSTNWSAERSRLNYPENGWTPGEDSYREWIQVDLGLLRFVTAVGTQGAISKETKKKYYVKTYKIDVSSNGEDWITIKEGNKPVLFQGNTNPTDVVVAVFPKPLITRFVRIKPATWETGISMRFEVYGCKITDYPCMEALGMESGEIHSDQITASSQYSTNWSAERSRLNYPENGWTPGEDSYREWIQVDLGLLRFVTAVGTQGAISKETKKKYYVKTYKIDVSSNGEDWITIKEGNKPVLFQGNTNPTDVVVAVFPKPLITRFVRIKPATWETGISMRFEVYGCGGGGSGGGGSCMEALGMESGEIHSDQITASSQYSTNWSAERSRLNYPENGWTPGEDSYREWIQVDLGLLRFVTAVGTQGAISKETKKKYYVKTYKIDVSSNGEDWITIKEGNKPVLFQGNTNPTDVVVAVFPKPLITRFVRIKPATWETGISMRFEVYGCKITDYPCMEALGMESGEIHSDQITASSQYSTNWSAERSRLNYPENGWTPGEDSYREWIQVDLGLLRFVTAVGTQGAISKETKKKYYVKTYKIDVSSNGEDWITIKEGNKPVLFQGNTNPTDVVVAVFPKPLITRFVRIKPATWETGISMRFEVYGCGGGGSGGGGSEPKSCDKTHTCPPCPAPELLGGPSVFLFPPKPKDTLMISRTPEVTCVVVDVSHEDPEVKFNWYVDGVEVHNAKTKPREEQYNSTYRVVSVLAVLHQDWLNGKEYKCKVSNKALPAPIEKTISKAKGQPREPQVYTLPPSRDELTKNQVSLTCLVKGFYPSDIAVAWESNGQPENNYKTTPPVLDSDGSFFLYSKLTVDKSRWQQGNVFSCSVMHEALHAHYTQKSLSLSPGK
For B1, the Kd [6] was < 1 nM.

B2: SEQ ID NO: 113, b1-Fc (NRP1, WT, single b1) (Fc fusion)
chain: EDFKCMEALGMESGEIHSDQITASSQYSTNWSAERSRLNYPENGWTPGEDSYREWIQVDLGLLRFVTAVGTQGAISKETKKKYYVKTYKIDVSSNGEDWITIKEGNKPVLFQGNTNPTDVVVAVFPKPLITRFVRIKPATWETGISMRFEVYGCGGGGSGGGGSEPKSCDKTHTCPPCPAPELLGGPSVFLFPPKPKDTLMISRTPEVTCVVVDVSHEDPEVKFNWYVDGVEVHNAKTKPREEQYNSTYRVVSVLAVLHQDWLNGKEYKCKVSNKALPAPIEKTISKAKGQPREPQVYTLPPSRDELTKNQVSLTCLVKGFYPSDIAVAWESNGQPENNYKTTPPVLDSDGSFFLYSKLTVDKSRWQQGNVFSCSVMHEALHAHYTQKSLSLSPGK
In the case of B2, the Kd [6] is reported as < 1 nM.
